In patent US20110263454A1, “Methods of Identifying Functional Characteristics of Promoters, Transcription Modifying Proteins and Transcription Modulating Agents” (Salk Institute for Biological Studies, priority 2008, published 2011):

B1: FXR: Farnesoid X Receptor (NR1H4), cDNA driver (protein, UniProt Q96RI1 1-486, looked up)
Bile acid receptor: MVMQFQGLENPIQISPHCSCTPSGFFMEMMSMKPAKGVLTEQVAGPLGQNLEVEPYSQYSNVQFPQVQPQISSSSYYSNLGFYPQQPEEWYSPGIYELRRMPAETLYQGETEVAEMPVTKKPRMGASAGRIKGDELCVVCGDRASGYHYNALTCEGCKGFFRRSITKNAVYKCKNGGNCVMDMYMRRKCQECRLRKCKEMGMLAECMYTGLLTEIQCKSKRLRKNVKQHADQTVNEDSEGRDLRQVTSTTKSCREKTELTPDQQTLLHFIMDSYNKQRMPQEITNKILKEEFSAEENFLILTEMATNHVQVLVEFTKKLPGFQTLDHEDQIALLKGSAVEAMFLRSAEIFNKKLPSGHSDLLEERIRNSGISDEYITPMFSFYKSIGELKMTQEEYALLTAIVILSPDRQYIKDREAVEKLQEPLLDVLQKLCKIHQPENPQHFACLLGRLTELRTFNHHHAEMLMSWRVNDHKFTPLLCEIWDVQ
B2: PPARd: Peroxisome proliferator activated receptor δ (NR1C2), cDNA driver (protein, UniProt Q03181 1-441, looked up)
Peroxisome …: MEQPQEEAPEVREEEEKEEVAEAEGAPELNGGPQHALPSSSYTDLSRSSSPPSLLDQLQMGCDGASCGSLNMECRVCGDKASGFHYGVHACEGCKGFFRRTIRMKLEYEKCERSCKIQKKNRNKCQYCRFQKCLALGMSHNAIRFGRMPEAEKRKLVAGLTANEGSQYNPQVADLKAFSKHIYNAYLKNFNMTKKKARSILTGKASHTAPFVIHDIETLWQAEKGLVWKQLVNGLPPYKEISVHVFYRCQCTTVETVRELTEFAKSIPSFSSLFLNDQVTLLKYGVHEAIFAMLASIVNKDGLLVANGSGFVTREFLRSLRKPFSDIIEPKFEFAVKFNALELDDSDLALFIAAIILCGDRPGLMNVPRVEAIQDTILRALEFHLQANHPDAQYLFPKLLQKMADLRQLVTEHAQMMQRIKKTETETSLHPLLQEIYKDMY
B3: RARg: Retinoic acid receptor γ (NR1B3), nuclear hormone receptor cDNA driver (protein, UniProt P13631 1-454, looked up)
Retinoic acid receptor gamma: MATNKERLFAAGALGPGSGYPGAGFPFAFPGALRGSPPFEMLSPSFRGLGQPDLPKEMASLSVETQSTSSEEMVPSSPSPPPPPRVYKPCFVCNDKSSGYHYGVSSCEGCKGFFRRSIQKNMVYTCHRDKNCIINKVTRNRCQYCRLQKCFEVGMSKEAVRNDRNKKKKEVKEEGSPDSYELSPQLEELITKVSKAHQETFPSLCQLGKYTTNSSADHRVQLDLGLWDKFSELATKCIIKIVEFAKRLPGFTGLSIADQITLLKAACLDILMLRICTRYTPEQDTMTFSDGLTLNRTQMHNAGFGPLTDLVFAFAGQLLPLEMDDTETGLLSAICLICGDRMDLEEPEKVDKLQEPLLEALRLYARRRRPSQPYMFPRMLMKITDLRGISTKGAERAITLKMEIPGPMPPLIREMLENPEMFEDDSSQPGPHPNASSEDEVPGGQGKGGLKSPA

Key:
[1] = tested on: hMyoD promoter; assay: NHR-promoter luciferase screen, hMyoD promoter; assay type: cell-based, human; settings: for Luc. act., normalized to lacZ / Normalized Luc. act., normalized to control: MyoD promoter reporter, co-transfected HR, without or with its ligand; for Normalized Luc. act., normalized to control: relative to control; for luciferase activity normalized to lacZ activity and to a control, hMyoD: hMyoD promoter-luciferase, CV-1 cells, NHR +/- ligand, control = 1.00
Protocol: (§1) The use, feasibility, and reproducibility of the functional NHR-promoter screen in a 48-well format have been tested validated. Briefly, there were co-expressed 50 ng of each NHR/NHR homodimer or NHR/RXR heterodimer with 100 ng promoter/luciferase construct and 50 ng of LacZ (as a control for transfection efficiency) in CV-1 cells using Fugene HD (Roche) as a transfection reagent (alternatively or additionally, a CMV-YFP construct can be used as a transfection control). Each of the nuclear hormone receptors that were used in these experiments was cloned into a pcDNA3.1 vector and comprised a C-terminally linked V5H6 tag. Twenty-four hours after transfection, appropriate ligands were added, where applicable, (see Table 5 for various ligands and concentrations and after 48 hrs, samples were assayed for luciferase and LacZ activity. To measure for luciferase activity 15 ul of sample was added to 30 ul of luciferase buffer (20 mM tricine, 1.07 mM MgCarbonate, 2.67 mM MgSulfate, 0.1 mM Naz-EDTA, 5 mM DTT, 5 mM ATP, 0.15 mg/ml CoA, 0.5 mM Luciferin), mixed briefly, and run in a Perkin Elmer Victor 5 luminometer. Thus, the functional NHR-promoter screen was used to observe the transcriptional activity of 29 promoters from various physiological pathways including inflammation, lipid and sugar metabolism, cholesterol transport, xenobiotic metabolism, and circadian rhythm.
(§2) The promoters that facilitate transcription of the indicated gene products that were tested using the protocols described herein are listed in the first row of the table. The nuclear hormone receptors and, where applicable, ligands that were assayed for their transcriptional effects on the promoters are listed in the first column of the table. The data represent the luciferase activity of each sample normalized to both the lacZ activity of that sample and to a control, e.g., no NHR or ligand, as customary in the art. As described previously, these normalizations allow the transcriptional activity of each reporter cell to be compared to other samples.
(§3) Tables 7-40 show the transcriptional effects of the hormone receptors, and, where applicable, ligands (orphan receptors are screened without ligand), on each individual promoter. […] The control data of each table are shown in their last rows.

[2] = tested on: MCP-1 promoter; assay: NHR-promoter luciferase screen, MCP-1 promoter; assay type: cell-based; settings: for Normalized Luc. act., normalized to control / Luc. act., normalized to lacZ: MCP-1 promoter reporter; for Normalized Luc. act., normalized to control: HR without or with its ligand, relative to control; for Luc. act., normalized to lacZ: hormone receptor (HR) without or with its ligand; for mMCP-1 promoter reporter activity: transcription factor +/- ligand, control = 1.00
Protocol: as §1, §2, §3

[3] = tested on: mDio1 promoter; assay: NHR-promoter luciferase screen, mDio1 promoter; assay type: cell-based, mouse; settings: for Luc. act., normalized to lacZ / Normalized Luc. act., normalized to control: Dio1, HR component without or with its ligand; for mDio1 promoter reporter activity: transcription factor +/- ligand, control = 1.00
Protocol: as §1, §2, §3

Row | Molecule | Luc. act., normalized to lacZ [1] | Normalized Luc. act., normalized to control [1] | luciferase activity normalized to lacZ activity and to a control, hMyoD [1] | Normalized Luc. act., normalized to control [2] | Luc. act., normalized to lacZ [2] | mMCP-1 promoter reporter activity [2] | Luc. act., normalized to lacZ [3] | Normalized Luc. act., normalized to control [3] | mDio1 promoter reporter activity [3]
1 | B1 | 36.5 | 0.6 | 0.58 | 1.2 | 124.1 | 1.16 | 7.2 | 1.6 | 1.62
2 | B2 | 59.6 | 0.9 | 0.94 | 1.8 | 190.4 | 1.78 | 10.0 | 2.2 | 2.23
3 | B3 | 104.5 | 1.6 | 1.65 | 1.6 | 167.8 | 1.57 | 7.2 | 1.6 | 1.61
